The values below come from publication doi:10.1101/2021.03.03.433707 (bioRxiv, 2021).

Sequences and labels used below:
B3: MatPΔ18C (printed MatPA18C; 1-132) (domain or fragment, E. coli, UniProt P0A8N0 1-132, looked up)
chain: MKYQQLENLESGWKWKYLVKKHREGELITRYIEASAAQEAVDVLLSLENEPVLVNGWIDKHMNPELVNRMKQTIRARRKRHFNAEHQHTRKKSIDLEFIVWQRLAGLAQRRGKTLSETIVQLIEDAENKEKY

In data set [1] the target is B3. As to the kind of experiment: native MS.
Data set [2] concerns the molecule itself. Put plainly: native MS.
Data set [3] has as its target T1, MukB, full length, wild type (E. coli, UniProt P22523 1-1486).
T1 sequence (looked up): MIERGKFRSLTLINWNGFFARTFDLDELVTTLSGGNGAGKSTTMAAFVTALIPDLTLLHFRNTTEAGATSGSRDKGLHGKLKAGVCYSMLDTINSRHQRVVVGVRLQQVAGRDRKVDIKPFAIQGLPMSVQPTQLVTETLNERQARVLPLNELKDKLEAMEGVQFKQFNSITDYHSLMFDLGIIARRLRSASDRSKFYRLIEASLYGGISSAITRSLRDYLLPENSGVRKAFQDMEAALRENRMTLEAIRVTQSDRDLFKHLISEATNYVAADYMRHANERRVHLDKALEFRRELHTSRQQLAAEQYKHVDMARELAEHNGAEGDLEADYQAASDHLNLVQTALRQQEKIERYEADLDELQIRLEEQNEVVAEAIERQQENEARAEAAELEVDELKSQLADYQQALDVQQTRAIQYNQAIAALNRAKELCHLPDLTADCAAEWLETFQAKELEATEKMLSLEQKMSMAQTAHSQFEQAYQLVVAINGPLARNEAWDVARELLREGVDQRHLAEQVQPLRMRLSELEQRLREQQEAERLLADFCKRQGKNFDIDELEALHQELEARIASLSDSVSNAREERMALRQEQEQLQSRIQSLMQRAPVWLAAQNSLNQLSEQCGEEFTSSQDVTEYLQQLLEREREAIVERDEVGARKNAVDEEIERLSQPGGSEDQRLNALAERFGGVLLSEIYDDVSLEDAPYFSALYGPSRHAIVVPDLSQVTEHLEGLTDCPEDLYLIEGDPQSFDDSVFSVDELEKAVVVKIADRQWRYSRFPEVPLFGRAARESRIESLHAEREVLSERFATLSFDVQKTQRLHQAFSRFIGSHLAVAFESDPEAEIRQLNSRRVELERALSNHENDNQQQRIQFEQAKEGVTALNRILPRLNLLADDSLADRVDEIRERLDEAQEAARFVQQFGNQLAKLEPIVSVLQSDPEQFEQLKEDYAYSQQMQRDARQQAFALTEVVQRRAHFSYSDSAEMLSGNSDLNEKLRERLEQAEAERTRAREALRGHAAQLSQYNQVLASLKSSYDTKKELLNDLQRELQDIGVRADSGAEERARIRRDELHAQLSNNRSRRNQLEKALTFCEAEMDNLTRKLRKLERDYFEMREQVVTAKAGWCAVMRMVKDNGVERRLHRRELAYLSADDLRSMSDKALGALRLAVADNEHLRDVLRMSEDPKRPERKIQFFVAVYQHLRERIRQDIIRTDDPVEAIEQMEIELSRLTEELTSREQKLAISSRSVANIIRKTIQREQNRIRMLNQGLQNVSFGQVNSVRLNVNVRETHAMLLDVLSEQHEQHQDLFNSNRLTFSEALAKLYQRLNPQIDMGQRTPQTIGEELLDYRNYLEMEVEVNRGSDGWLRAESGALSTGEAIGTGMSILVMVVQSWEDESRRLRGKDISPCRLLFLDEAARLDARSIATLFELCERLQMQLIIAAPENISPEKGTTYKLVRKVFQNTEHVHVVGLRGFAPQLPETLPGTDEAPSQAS
As to the kind of experiment: fluorescence correlation spectroscopy.

For data set [4], the target named is T2, MukB long hinge (LH, 568-863) (E. coli, UniProt P22523 568-863).
T2 sequence (looked up): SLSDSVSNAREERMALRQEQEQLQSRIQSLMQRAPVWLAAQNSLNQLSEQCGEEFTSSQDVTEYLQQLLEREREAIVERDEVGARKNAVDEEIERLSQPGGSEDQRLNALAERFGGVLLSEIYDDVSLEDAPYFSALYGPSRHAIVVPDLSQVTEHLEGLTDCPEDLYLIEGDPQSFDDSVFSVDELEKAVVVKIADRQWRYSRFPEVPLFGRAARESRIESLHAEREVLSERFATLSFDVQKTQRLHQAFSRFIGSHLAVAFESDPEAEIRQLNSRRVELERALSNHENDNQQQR
Put plainly: native MS.

Data set [5] has as its target T2, MukB long hinge (LH, 568-863). Put plainly: ITC. On the technique in general: In ITC the heat of successive injections is recorded.
The target in data set [6] is T3, MukB^KKK (full length MukB D697K D745K E753K) (E. coli, UniProt P22523 1-1486, D697K | D745K | E753K).
T3 sequence (looked up): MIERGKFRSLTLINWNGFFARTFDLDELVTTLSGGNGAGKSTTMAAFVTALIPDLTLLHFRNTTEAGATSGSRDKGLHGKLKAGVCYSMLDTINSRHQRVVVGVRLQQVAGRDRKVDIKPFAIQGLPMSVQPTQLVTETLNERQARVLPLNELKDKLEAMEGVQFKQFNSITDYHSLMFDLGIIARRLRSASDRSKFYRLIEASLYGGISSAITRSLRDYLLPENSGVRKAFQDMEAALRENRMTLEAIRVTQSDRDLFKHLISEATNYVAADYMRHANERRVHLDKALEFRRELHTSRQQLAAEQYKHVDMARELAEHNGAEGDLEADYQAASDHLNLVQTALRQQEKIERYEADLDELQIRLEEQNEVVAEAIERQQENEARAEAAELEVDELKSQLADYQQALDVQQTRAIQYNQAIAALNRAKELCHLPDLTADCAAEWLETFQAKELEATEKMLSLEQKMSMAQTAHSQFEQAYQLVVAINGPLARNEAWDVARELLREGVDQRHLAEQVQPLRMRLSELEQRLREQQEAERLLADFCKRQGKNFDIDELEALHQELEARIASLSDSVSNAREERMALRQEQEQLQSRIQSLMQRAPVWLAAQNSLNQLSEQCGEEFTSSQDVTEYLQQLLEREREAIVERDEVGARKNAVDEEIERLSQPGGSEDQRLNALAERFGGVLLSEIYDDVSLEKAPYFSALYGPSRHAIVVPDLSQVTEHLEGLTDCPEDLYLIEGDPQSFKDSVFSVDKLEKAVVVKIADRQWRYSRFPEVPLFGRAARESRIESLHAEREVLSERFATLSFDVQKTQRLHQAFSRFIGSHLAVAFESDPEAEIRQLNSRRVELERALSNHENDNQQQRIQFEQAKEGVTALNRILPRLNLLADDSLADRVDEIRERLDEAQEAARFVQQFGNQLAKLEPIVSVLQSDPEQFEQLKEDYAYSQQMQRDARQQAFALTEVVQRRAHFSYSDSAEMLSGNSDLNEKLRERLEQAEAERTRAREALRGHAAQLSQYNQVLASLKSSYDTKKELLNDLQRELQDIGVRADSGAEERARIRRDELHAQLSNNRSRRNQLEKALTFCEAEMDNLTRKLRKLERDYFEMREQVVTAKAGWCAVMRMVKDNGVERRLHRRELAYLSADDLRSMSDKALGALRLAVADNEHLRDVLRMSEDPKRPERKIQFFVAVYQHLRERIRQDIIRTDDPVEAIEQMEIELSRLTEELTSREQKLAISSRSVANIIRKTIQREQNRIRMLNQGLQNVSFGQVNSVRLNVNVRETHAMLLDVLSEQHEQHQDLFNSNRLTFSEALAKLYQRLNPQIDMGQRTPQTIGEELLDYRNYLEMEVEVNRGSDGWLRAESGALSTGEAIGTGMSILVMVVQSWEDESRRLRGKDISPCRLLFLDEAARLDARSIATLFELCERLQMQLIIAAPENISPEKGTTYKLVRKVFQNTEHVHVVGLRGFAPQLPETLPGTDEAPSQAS
Put plainly: fluorescence correlation spectroscopy.

Data set [7] deals with T1, MukB, full length, wild type. Put plainly: fluorescence correlation spectroscopy. The source holds these as a separate data set.

B1: MukB short hinge (SH, 667-779) (domain or fragment, E. coli, UniProt P22523 667-779, looked up)
chain: GGSEDQRLNALAERFGGVLLSEIYDDVSLEDAPYFSALYGPSRHAIVVPDLSQVTEHLEGLTDCPEDLYLIEGDPQSFDDSVFSVDELEKAVVVKIADRQWRYSRFPEVPLFG
Regarding B1, the binding result in data set [1] is “binds”. Moreover, in data set [2], the “stoichiometry N” value was 2.

B2: ParC, full length (enzyme, E. coli, UniProt P0AFI2 1-752, looked up)
chain: MSDMAERLALHEFTENAYLNYSMYVIMDRALPFIGDGLKPVQRRIVYAMSELGLNASAKFKKSARTVGDVLGKYHPHGDSACYEAMVLMAQPFSYRYPLVDGQGNWGAPDDPKSFAAMRYTESRLSKYSELLLSELGQGTADWVPNFDGTLQEPKMLPARLPNILLNGTTGIAVGMATDIPPHNLREVAQAAIALIDQPKTTLDQLLDIVQGPDYPTEAEIITSRAEIRKIYENGRGSVRMRAVWKKEDGAVVISALPHQVSGARVLEQIAAQMRNKKLPMVDDLRDESDHENPTRLVIVPRSNRVDMDQVMNHLFATTDLEKSYRINLNMIGLDGRPAVKNLLEILSEWLVFRRDTVRRRLNYRLEKVLKRLHILEGLLVAFLNIDEVIEIIRNEDEPKPALMSRFGLTETQAEAILELKLRHLAKLEEMKIRGEQSELEKERDQLQGILASERKMNNLLKKELQADAQAYGDDRRSPLQEREEAKAMSEHDMLPSEPVTIVLSQMGWVRSAKGHDIDAPGLNYKAGDSFKAAVKGKSNQPVVFVDSTGRSYAIDPITLPSARGQGEPLTGKLTLPPGATVDHMLMESDDQKLLMASDAGYGFVCTFNDLVARNRAGKALITLPENAHVMPPVVIEDASDMLLAITQAGRMLMFPVSDLPQLSKGKGNKIINIPSAEAARGEDGLAQLYVLPPQSTLTIHVGKRKIKLRPEELQKVTGERGRRGTLMRGLQRIDRVEIDSPRRASSGDSEE
As to B2, in data set [3], the “fold decrease in MatP-Cy3B binding to MukB at a 10-fold excess of competitor” value is 3 fold.
As to B3, in data set [4], the “stoichiometry N” value was determined as 1 MatP dimer per LH dimer. Moreover, in data set [5], the Kd worked out at 590 nM, the dH is -16.8 kcal/mol and the “stoichiometry N” value was found to be 0.96.

B4: MatP-Cys-His labelled with Cy3B (MatP-Cy3B) (domain or fragment, E. coli, UniProt P0A8N0 1-132, looked up)
chain: MKYQQLENLESGWKWKYLVKKHREGELITRYIEASAAQEAVDVLLSLENEPVLVNGWIDKHMNPELVNRMKQTIRARRKRHFNAEHQHTRKKSIDLEFIVWQRLAGLAQRRGKTLSETIVQLIEDAENKEKY
modifications: Cy3B maleimide on a single cysteine engineered into the linker between MatP and its 6xHis-tag
For B4, the Kd in data set [6] is approximately 1600 nM; in data set [7], approximately 250 nM.

Usually stoichiometry N stands for the number of molecules, sites or subunits per partner or assembly. By Kd is commonly meant the concentration at which binding is half-saturated. Low values mean tighter binding, high ones weaker binding.
